# Measured values taken from patent US20240294890, “SYSTEMS, METHODS, AND COMPOSITIONS FOR RNA-GUIDED RNA-TARGETING CRISPR EFFECTORS” (MASSACHUSETTS INSTITUTE OF TECHNOLOGY, published 2024).
# T1: DisCas7-11 (Desulfonema ishimotonii)
# T1 chain: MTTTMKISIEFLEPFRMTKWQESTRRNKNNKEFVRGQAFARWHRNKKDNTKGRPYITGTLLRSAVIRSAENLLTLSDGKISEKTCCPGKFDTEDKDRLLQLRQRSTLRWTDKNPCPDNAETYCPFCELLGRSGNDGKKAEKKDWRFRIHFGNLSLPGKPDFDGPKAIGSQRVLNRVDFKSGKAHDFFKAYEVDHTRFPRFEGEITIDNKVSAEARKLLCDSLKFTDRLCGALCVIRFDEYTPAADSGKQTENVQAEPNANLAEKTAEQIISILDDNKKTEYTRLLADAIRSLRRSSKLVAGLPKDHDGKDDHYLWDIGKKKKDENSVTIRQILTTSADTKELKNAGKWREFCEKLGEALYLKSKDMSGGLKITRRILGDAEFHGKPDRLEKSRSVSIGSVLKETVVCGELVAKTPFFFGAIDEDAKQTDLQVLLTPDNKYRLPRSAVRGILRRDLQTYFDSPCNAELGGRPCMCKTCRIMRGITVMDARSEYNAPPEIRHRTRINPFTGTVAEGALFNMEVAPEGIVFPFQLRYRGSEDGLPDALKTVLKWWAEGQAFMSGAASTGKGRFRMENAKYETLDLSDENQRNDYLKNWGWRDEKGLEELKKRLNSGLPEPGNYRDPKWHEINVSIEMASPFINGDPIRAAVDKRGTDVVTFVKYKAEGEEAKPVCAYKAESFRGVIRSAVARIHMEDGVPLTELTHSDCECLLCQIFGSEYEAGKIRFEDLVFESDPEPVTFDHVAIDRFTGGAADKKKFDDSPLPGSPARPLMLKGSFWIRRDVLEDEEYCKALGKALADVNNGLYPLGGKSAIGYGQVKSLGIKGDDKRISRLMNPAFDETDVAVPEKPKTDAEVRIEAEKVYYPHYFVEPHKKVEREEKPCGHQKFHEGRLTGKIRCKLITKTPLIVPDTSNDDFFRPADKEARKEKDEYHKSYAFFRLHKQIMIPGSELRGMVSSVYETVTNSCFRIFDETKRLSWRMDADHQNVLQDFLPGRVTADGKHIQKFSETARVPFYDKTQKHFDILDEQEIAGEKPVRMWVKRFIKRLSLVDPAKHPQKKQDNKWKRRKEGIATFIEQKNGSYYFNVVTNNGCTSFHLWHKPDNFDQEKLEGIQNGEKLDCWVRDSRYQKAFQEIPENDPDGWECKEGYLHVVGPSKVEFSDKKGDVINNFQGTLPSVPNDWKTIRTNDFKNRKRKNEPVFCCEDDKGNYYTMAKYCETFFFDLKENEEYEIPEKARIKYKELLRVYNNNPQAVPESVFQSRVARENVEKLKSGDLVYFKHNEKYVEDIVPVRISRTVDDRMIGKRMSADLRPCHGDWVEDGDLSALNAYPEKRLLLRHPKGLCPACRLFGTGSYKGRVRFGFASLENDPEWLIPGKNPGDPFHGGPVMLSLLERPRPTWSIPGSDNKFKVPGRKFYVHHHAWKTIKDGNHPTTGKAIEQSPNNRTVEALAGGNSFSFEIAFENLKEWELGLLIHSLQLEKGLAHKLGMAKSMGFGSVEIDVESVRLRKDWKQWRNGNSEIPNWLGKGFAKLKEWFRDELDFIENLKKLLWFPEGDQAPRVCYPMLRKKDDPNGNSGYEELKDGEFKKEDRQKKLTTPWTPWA
# B1: DisCas7-11 non-targeting crRNA ; MS2 target 153 nt (ssRNA ; ssRNA)
# RNA 1: GGUUGGAAAGCCGGUUUUCUUUGAUGUCACGGAACCGCCAAUAUAACAAUACAGGUAUUAUAGUUG
# RNA 2: GGGGCAAACUCCGGCAUCUACUAAUAGACGCCGGCCAUUCAAACAUGAGGAUUACCCAUGUCGAAGACAACAAAGAAGUUCAACUCUUUAUGUAUUGAUCUUCCUCGCGAUCUUUCUCUCGAAAUUUACCAAUCAAUUGCUUCUGUCGCUACU
# Target: T1, DisCas7-11
# Assay: EMSA; target binding crRNA-dependent; non-targeting control
# Details: tags: Twin-Strep-SUMO tag cleaved off during purification; label: Cy5.5 body label
# Experimental: Electrophoretic mobility shift assays (EMSA) for crRNA-target interactions and quantification of EMSA intensities were performed (FIGS. 17A-F). The EMSA assays for targeting crRNA in the absence of DisCas7-11 show minimal binding of the cRNA and shift of the labeled target).
binder,measurement,value
B1,binding result,no binding
